The assay concerns the target human CD47 on CCRF-CEM cells (human) (UniProt Q08722). Description: flow cytometry on CCRF-CEM cells, MFI against concentration, one site specific binding with Hill slope. For orientation: Flow cytometry measures light scatter and fluorescence of single cells or particles in a stream.

B1: B6H12, mu anti-hu CD47 (antibody, from another filing, V domains shown)
VH: EVQLVESGGDLVKPGGSLKLSCAASGFTFSGYGMSWVRQTPDKRLEWVATITSGGTYTYYPDSVKGRFTISRDNAKNTLYLQIDSLKSEDTAIYFCARSLAGNAMDYWGQGTSVTVSS
VL: DIVMTQSPATLSVTPGDRVSLSCRASQTISDYLHWYQQKSHESPRLLIKFASQSISGIPSRFSGSGSGSDFTLSINSVEPEDVGVYYCQNGHGFPRTFGGGTKLEIK
In the case of B1, the Kd – broadly, the concentration at which binding is half-saturated – is 16 nM.

Source of the values: US20170369572A1.
